In this assay the target is T1, BSAP-1 (BF638R_1646), recombinant soluble protein with N-terminal His tag (Bacteroides fragilis 638R, UniProt E1WTV1 17-372).
T1 construct: BSAP-1 of Bacteroides fragilis 638R (BF638R_1646, GenBank CBW22174.1), without the N-terminal signal peptide and the lipidated cysteine (C16); the protein ends at P372; a Ser-Ser-Gly linker follows the His tag; Limits follow from 'excluding the signal peptide and conserved cysteine' (C16) and the CTD's end at P372; no cleavage of the tag is told; also called full-length BSAP-1; purified BSAP-1; …
T1 sequence: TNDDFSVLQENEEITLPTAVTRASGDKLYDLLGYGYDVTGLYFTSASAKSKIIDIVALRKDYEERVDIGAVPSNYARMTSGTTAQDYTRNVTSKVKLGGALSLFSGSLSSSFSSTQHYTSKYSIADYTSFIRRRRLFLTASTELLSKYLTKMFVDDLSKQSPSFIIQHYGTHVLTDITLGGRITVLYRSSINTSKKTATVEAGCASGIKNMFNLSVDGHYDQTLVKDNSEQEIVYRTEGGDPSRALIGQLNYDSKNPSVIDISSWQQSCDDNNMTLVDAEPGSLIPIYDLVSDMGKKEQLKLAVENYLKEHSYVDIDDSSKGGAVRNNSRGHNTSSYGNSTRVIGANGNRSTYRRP
Description: cryo-EM structure; peak 1 fractions of the BSAP-1 pull-down, in DDM, graphene oxide coated grids; map of the complex ~7 Å, local refinement on B1R^S 4.45 Å. To be noted: one partner purified.

The term stoichiometry N denotes a count of units in the complex or per binding partner.

B1: B1R^S, BSAP-1 receptor (BF9343_1563), untagged, overexpressed in Bacteroides thetaiotaomicron (receptor, Bacteroides fragilis NCTC 9343, UniProt Q5LEV6 1-556, looked up)
chain: QTVYDAAKITGKDLNGTARFVGMGGAMGALGGDISTIGTNPAGIGIYRSNDFMTSFGFSSYGTESKYLGDKFKSDKIQGSFDNLGFVFASKIGNETSLRYVNFGFNYHKAKSFYKNMNMKGGLGNSSQTYQMAQQASGITKWGDYPYDDPEIGWLSILGYDGWLISDITTDKMNAAGKPNSPYVDKDGNQRYDANGKPLYTTPGNYYGMYDDGVANFHSQERGGIDQYDFNVAFNFNDRFYLGLTLGAYAVDYSKYTYYSEAYTGANAPQNYNLRSWNKVRGSGFDLKLGTIIRPFENSPFRIGLAIHTPTFYNLDYKTSARVESDVLNVETGKIDQWSVDTRDKLPGNGDMVREFRLQTPWTYNVSLGYTIGTSLALGAEYEYQDYSTMKFRGPTGSSSEFTFENSTRPMMKGVNTLRLGLEYKVIPQFALRAGYNYTSAIFHGDAFKDLPYYSIQTDTDWANTKALSNYTLGIGYRGSVFYADLAYKFSTYNEDFYPFVNKYEENNATTVLTPETTKVTNTRSQVLFTLGLRF
notes: B1R^S, outer membrane beta-barrel protein of Bacteroides fragilis NCTC 9343 (BF9343_1563, GenBank CAH07344.1); theoretical molecular weight 62 kDa; untagged; in the pull-down it stood in a membrane fraction, in microscopy on cells
On to B1, for which the “stoichiometry N” value stood at 1.
